In PMC3197598, “Preventing Staphylococcus aureus Sepsis through the Inhibition of Its Agglutination in Blood” (PLoS Pathogens, 2011):

Biological target: T1, human fibrinogen (human, UniProt P02671-2 20-644; P02675 31-491; P02679-2 27-437)
T1 construct: fibrinogen A-alpha chain, human; fibrinogen B-beta chain, human; fibrinogen gamma chain, human; Coated on MaxSorb ELISA plates; also called Fbgn; source: bought: Sigma; copies: 2 + 2 + 2
T1 sequence (looked up) 1: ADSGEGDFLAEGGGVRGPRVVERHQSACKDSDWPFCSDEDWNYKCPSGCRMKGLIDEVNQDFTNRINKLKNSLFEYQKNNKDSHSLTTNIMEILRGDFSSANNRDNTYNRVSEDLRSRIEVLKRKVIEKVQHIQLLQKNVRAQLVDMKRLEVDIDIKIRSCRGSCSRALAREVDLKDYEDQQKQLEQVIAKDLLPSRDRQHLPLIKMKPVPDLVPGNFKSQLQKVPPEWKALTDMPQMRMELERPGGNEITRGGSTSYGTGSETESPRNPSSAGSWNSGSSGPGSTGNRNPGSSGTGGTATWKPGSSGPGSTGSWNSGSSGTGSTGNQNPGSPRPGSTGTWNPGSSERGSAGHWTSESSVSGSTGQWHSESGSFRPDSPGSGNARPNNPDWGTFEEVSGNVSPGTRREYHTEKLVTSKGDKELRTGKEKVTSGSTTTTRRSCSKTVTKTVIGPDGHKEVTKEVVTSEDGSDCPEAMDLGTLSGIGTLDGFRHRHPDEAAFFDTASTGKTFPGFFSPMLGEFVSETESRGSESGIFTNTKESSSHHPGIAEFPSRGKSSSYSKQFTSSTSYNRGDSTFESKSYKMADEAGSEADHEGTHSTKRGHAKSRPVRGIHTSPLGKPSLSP
T1 sequence (looked up) 2: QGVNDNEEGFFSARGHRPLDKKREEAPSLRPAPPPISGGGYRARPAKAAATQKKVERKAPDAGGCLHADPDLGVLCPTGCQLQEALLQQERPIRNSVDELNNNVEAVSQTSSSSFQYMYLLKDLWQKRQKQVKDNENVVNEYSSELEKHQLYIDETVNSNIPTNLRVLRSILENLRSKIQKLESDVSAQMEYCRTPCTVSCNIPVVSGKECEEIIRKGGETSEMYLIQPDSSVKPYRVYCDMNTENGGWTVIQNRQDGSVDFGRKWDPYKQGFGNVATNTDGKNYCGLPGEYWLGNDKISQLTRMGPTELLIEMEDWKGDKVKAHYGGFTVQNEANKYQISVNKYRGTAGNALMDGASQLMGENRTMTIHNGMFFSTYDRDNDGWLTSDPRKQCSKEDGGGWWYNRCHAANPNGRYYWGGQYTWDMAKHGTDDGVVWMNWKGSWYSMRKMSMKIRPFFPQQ
T1 sequence (looked up) 3: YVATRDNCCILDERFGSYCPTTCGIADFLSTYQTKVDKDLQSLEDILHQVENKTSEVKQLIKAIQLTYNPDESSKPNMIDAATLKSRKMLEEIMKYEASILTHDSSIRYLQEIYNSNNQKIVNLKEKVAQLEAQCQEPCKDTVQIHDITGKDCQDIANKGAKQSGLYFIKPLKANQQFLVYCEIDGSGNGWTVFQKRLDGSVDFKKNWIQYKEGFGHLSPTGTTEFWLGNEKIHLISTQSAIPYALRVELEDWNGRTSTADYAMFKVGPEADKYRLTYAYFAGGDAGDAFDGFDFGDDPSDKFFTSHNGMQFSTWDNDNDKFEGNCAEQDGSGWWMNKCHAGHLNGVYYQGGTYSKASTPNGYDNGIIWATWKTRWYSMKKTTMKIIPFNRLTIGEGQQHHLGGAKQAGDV
Assay: ELISA; human fibrinogen coated overnight on MaxSorb 96-well plates, wells treated with PBS (fibrinogen) or 100 nM alpha-thrombin in 1% sodium-citrate/PBS for one hour at room temperature (fibrin); ClfA in 1% sodium-citrate added at increasing concentrations for one hour; bound ClfA detected with polyclonal anti-ClfA and anti-rabbit-HRP; non-linear regression, one-site saturation
Settings: both partners purified

B1: clumping factor A (ClfA), purified recombinant (natural protein)
chain: not shown
notes: clumping factor A (ClfA) of Staphylococcus aureus; strain Newman is the strain worked with; it would add an N-terminal His tag (surmised); also called His6-ClfA; source: E. coli BL21(DE3), purified (Ni-NTA)
B1 showed a Kd of 395 ± 51.8 nM.
